The values that follow are results of earlier work, collected in PMC2846785.

By pKa is commonly meant the pH at which an ionisable group is half protonated.

This data set relates to Cys.

In the case of “Arylamine N-acetyltransferase 2 (hamster NAT2) (Mesocricetus auratus (Syrian hamster))”, the pKa was 5.23 ± 0.03.
